Results from patent US20220185900A1 (Regeneron, published 2022).

T1: Macaca fascicularis (mf) RET.mmh (Macaca fascicularis)
T1 construct: also called monkey RET
T1 chain: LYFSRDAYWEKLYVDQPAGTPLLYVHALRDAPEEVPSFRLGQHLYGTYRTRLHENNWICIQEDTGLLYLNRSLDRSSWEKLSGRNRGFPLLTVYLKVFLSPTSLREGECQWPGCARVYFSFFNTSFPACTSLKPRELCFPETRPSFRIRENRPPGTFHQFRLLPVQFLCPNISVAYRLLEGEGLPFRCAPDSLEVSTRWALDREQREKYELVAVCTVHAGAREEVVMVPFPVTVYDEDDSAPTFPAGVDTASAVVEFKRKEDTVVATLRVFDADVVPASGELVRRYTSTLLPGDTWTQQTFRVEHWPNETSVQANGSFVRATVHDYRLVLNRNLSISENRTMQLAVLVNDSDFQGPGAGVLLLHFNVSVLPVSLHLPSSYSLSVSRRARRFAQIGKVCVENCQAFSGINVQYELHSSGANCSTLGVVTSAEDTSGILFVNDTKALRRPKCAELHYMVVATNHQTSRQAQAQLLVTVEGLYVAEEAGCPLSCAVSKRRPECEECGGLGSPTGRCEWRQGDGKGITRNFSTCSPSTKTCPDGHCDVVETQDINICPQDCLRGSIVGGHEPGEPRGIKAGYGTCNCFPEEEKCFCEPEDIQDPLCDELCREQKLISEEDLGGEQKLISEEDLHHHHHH

B1: H4H8067P (antibody, human IgG4, V domains shown)
VH: QVQLVESGGGVVQPGRSLRLSCVASGFTFSNYGMHWVRQAPGKGLEWVALIWYDGSNKYFADSVKGRFTISRDNSKRMMFLEMNSLRAEDTAIYYCTRDRLFDFWGQGTLVTVSS
VL: AIQMTQSPSSLSASVGDRVSITCRASQDIRHDLGWFHQKPGKAPKLLIYAASTLQSGVPSRFGGSGSGTDFTLTITSLQPEDFGTYYCLQDYNYPATFGQGTRLEIK
notes: human IgG4 Fc (H4H prefix)
B2: H4H8085P (antibody, human IgG4, V domains shown)
VH: QVQLVESGGGVVQPGRSLRLSCTASGFTFDNYGMHWVRQAPGKGLEWVAVISYDGSNTFYADSVKGRFTISRDNSKNALYLQMNSLRAEDTAVYYCAKDLEFDILIGYPFDSWGRGTLVTVSS
VL: DIQLTQSPSFLSASVGDRVTITCWASQDISRYLAWYQQKPGKAPNLLIYAASTLQSGVPSRFSGSGSGTEFTLTINSLQPEDFATYYCQQLFSYPRTFGQGTKVEIK
notes: human IgG4 Fc (H4H prefix)
B3: H2M7086N (antibody, mouse IgG2, V domains shown)
VH: QVQLVESGGGVVQPGRSLRLSCVVSGFTFSNYGMHWVRQGPGRGLEWLALIWYDGSDKYYAESVRGRFTISRDNSKNTVYLQMNSLRAEDTAMYYCTRDRIFDYWGQGTLVTVSS
VL: AIQMTQSPSSLSASVGDRVTITCRASQDIRNDLGWYQHNPGKAPNLLIYAASTLQIGVPSRFRGSGSGTDFTLTISSLQPEDFATYYCLQDFDYPLSFGGGTKVEIR
notes: human variable domains with mouse IgG2 Fc (H2M prefix)
B4: H4H7086N (antibody, human IgG4, V domains shown)
VH: QVQLVESGGGVVQPGRSLRLSCVVSGFTFSNYGMHWVRQGPGRGLEWLALIWYDGSDKYYAESVRGRFTISRDNSKNTVYLQMNSLRAEDTAMYYCTRDRIFDYWGQGTLVTVSS
VL: AIQMTQSPSSLSASVGDRVTITCRASQDIRNDLGWYQHNPGKAPNLLIYAASTLQIGVPSRFRGSGSGTDFTLTISSLQPEDFATYYCLQDFDYPLSFGGGTKVEIR
notes: human IgG4 Fc form of 7086N; also called H4H7086P

Assays:
[1] = molecular target: T2, hRET.mmh (human, UniProt P07949 29-635, biotinylated in the ELISA of Example 4 (biot-hRET.mmh); not in the SPR of Example 3); assay: competition sandwich ELISA: 1 nM biot-hRET.mmh + antibody, plate-coated GDNF/GFRα1 co-complex
T2 construct: also called biot-hRET.mmh; soluble monomeric human RET
Experimental: The ability of anti-RET antibodies to block the binding of human RET to pre-complexed plate bound GDNF:GFRα1 was assessed using a competition sandwich ELISA.
Antibody-RET mixtures were incubated for 1 hour at RT and then transferred to microtiter plates previously coated with the hGDNF/hGFRα1 co-complex. Binding was allowed to proceed for 1 hr at RT followed by extensive washing. […] Plates were read at 450 nm and data analysis used a sigmoidal dose-response model within Prism™ software.
The absorbance values of the wells containing the highest concentration for each antibody were used to determine the blocking percent at maximum concentration antibody tested.

[2] = molecular target: T1, Macaca fascicularis (mf) RET.mmh; assay: SPR Biacore T200, mAb capture, 37 C
Experimental: (§1) Binding affinities and kinetic constants of human anti-RET antibodies were determined by surface plasmon resonance (Biacore T200) at […] (Tables 2-3). […] Binding equilibrium dissociation constants (KD) and dissociative half-lives (t_{1/2}) were calculated from the kinetic rate constants as: KD [M]=kd/kₐ; and t_{1/2}(min)=(ln2/(60*kd). Calculations were performed using BiacoreT200 evaluation software v1.0.

[3] = molecular target: T2, hRET.mmh; assay: SPR Biacore T200, mAb capture, 37 C
Experimental: as §1

[4] = molecular target: T3, hRET.mFc (human); assay: SPR Biacore T200, mAb capture, 37 C
T3 construct: also called dimeric human RET
Experimental: as §1

[5] = molecular target: T1, Macaca fascicularis (mf) RET.mmh; assay: SPR Biacore T200, mAb capture, 25 C
Experimental: as §1

[6] = molecular target: T2, hRET.mmh; assay: SPR Biacore T200, mAb capture, 25 C
Experimental: as §1

[7] = molecular target: T3, hRET.mFc; assay: SPR Biacore T200, mAb capture, 25 C
Experimental: as §1

| Binder | % Max Blocking [1] | IC50 [1] | Kd [2] | koff [2] | kon [2] | t½ [2] | Kd [3] | koff [3] | kon [3] | t½ [3] | Kd [4] | koff [4] | kon [4] | t½ [4] | Kd [5] | koff [5] | kon [5] | t½ [5] | Kd [6] | koff [6] | also measured |
| --- | --- | --- | --- | --- | --- | --- | --- | --- | --- | --- | --- | --- | --- | --- | --- | --- | --- | --- | --- | --- | --- |
| B1 | 95% | < 0.25 nM | 196 nM | 0.0603 s⁻¹ | 307000 M⁻¹ s⁻¹ | 0.2 min | 7.31 nM | 0.00116 s⁻¹ | 159000 M⁻¹ s⁻¹ | 10 min | 2.24 nM | 0.000458 s⁻¹ | 204000 M⁻¹ s⁻¹ | 25 min | 385 nM | 0.0415 s⁻¹ | 108000 M⁻¹ s⁻¹ | 0.3 min | 2.12 nM | 0.000235 s⁻¹ | kon [6]: 111000 M⁻¹ s⁻¹; t½ [6]: 49 min; Kd [7]: 0.94 nM; koff [7]: 0.000158 s⁻¹; kon [7]: 168000 M⁻¹ s⁻¹; t½ [7]: 73 min |
| B2 | 96% | < 0.25 nM | 8.3 nM | 0.00126 s⁻¹ | 152000 M⁻¹ s⁻¹ | 9 min | 6.23 nM | 0.000897 s⁻¹ | 144000 M⁻¹ s⁻¹ | 13 min | 5.5 nM | 0.00055 s⁻¹ | 99000 M⁻¹ s⁻¹ | 21 min | 3.4 nM | 0.000225 s⁻¹ | 66000 M⁻¹ s⁻¹ | 51 min | 2.34 nM | 0.000187 s⁻¹ | kon [6]: 80100 M⁻¹ s⁻¹; t½ [6]: 62 min; Kd [7]: 1.33 nM; koff [7]: 0.000125 s⁻¹; kon [7]: 94000 M⁻¹ s⁻¹; t½ [7]: 92 min |
| B3 | 96% | 0.33 nM | – | – | – | – | – | – | – | – | – | – | – | – | – | – | – | – | – | – | – |
| B4 | 97% | 0.39 nM | – | – | – | – | – | – | – | – | – | – | – | – | – | – | – | – | – | – | – |
